The results in this text go back to the supplement of paper PMC5998384.

Series [1] has as its system HeLa Kyoto. The experiment in a line: solubility change mitosis vs G1/S (difference of NP-40 vs SDS log2 ratios) (log2 ratio difference); higher = more soluble in mitosis.
The subject of series [2] is HeLa Kyoto. Briefly: thermal stability score vs G1/S (z-score of summed log2 fold changes over temperatures); higher = more thermally stable than in G1/S.
The test system of series [3] is HeLa Kyoto. The experiment in a line: melting temperature (median over replicates), in situ; higher = more thermally stable.
Series [4] relates to HeLa Kyoto. The experiment in a line: solubility in G1/S (NP-40 vs SDS abundance) (log2 ratio); higher = more soluble. The following applies: cell cycle stage: G1/S.
The mark [5] stands for this setting: cell cycle stage: early G1 (4.5 h after nocodazole release).
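For melting temperature (median over replicates), in situ in this document: HeLa Kyoto cells synchronized by double thymidine or nocodazole block, proteins quantified by TMT10plex mass spectrometry, three independent biological replicates.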
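For solubility change mitosis vs G1/S (difference of NP-40 vs SDS log2 ratios) in this document: synchronized HeLa Kyoto cells (double thymidine block for G1/S, nocodazole release for mitosis), protein amounts in NP-40 versus SDS lysates quantified by mass spectrometry, three biological replicates.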
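For solubility in G1/S (NP-40 vs SDS abundance) in this document: HeLa Kyoto cells arrested at G1/S by double thymidine block, proteins quantified by TMT10plex mass spectrometry in mild NP-40 versus SDS extracts, three biological replicates.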
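For thermal stability score vs G1/S (z-score of summed log2 fold changes over temperatures) in this document: synchronized HeLa Kyoto cells, proteins quantified by TMT10plex mass spectrometry, three biological replicates, mitosis taken 0.5 h after nocodazole release, G1/S directly after double thymidine block.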

“MPSKFSCRQLREAGQCFESFLVVRGLDMETDRERLRTIYNRDFKISFGTPAPGFSSMLYGMKIANLAYVTKTRVRFFRLDRWADVRFPEKRRMKLGSDISKHHKSLLAKIFYDRAEYLHGKHGVDVEVQGPHEARDGQLLIRLDLNRKEVLTLRLRNGGTQSVTLTHLFPLCRTPQFAFYNEDQELPCPLGPGECYELHVHCKTSFVGYFPATVLWELLGPGESGSEGAGTFYIARFLAAVAHSPLAAQLKPMTPFKRTRITGNPVVTNRIEEGERPDRAKGYDLELSMALGTYYPPPRLRQLLPMLLQGTSIFTAPKEIAEIKAQLETALKWRNYEVKLRLLLHLEELQMEHDIRHYDLESVPMTWDPVDQNPRLLTLEVPGVTESRPSVLRGDHLFALLSSETHQEDPITYKGFVHKVELDRVKLSFSMSLLSRFVDGLTFKVNFTFNRQPLRVQHRALELTGRWLLWPMLFPVAPRDVPLLPSDVKLKLYDRSLESNPEQLQAMRHIVTGTTRPAPYIIFGPPGTGKTVTLVEAIKQVVKHLPKAHILACAPSNSGADLLCQRLRVHLPSSIYRLLAPSRDIRMVPEDIKPCCNWDAKKGEYVFPAKKKLQEYRVLITTLITAGRLVSAQFPIDHFTHIFIDEAGHCMEPESLVAIAGLMEVKETGDPGGQLVLAGDPRQLGPVLRSPLTQKHGLGYSLLERLLTYNSLYKKGPDGYDPQFITKLLRNYRSHPTILDIPNQLYYEGELQACADVVDRERFCRWAGLPRQGFPIIFHGVMGKDEREGNSPSFFNPEEAATVTSYLKLLLAPSSKKGKARLSPRSVGVISPYRKQVEKIRYCITKLDRELRGLDDIKDLKVGSVEEFQGQERSVILISTVRSSQSFVQLDLDFNLGFLKNPKRFNVAVTRAKALLIIVGNPLLLGHDPDWKVFLEFCKENGGYTGCPFPAKLDLQQGQNLLQGLSKLSPSTSGPHSHDYLPQEREGEGGLSLQVEPEWRNEL [MOV10]”: the “solubility change mitosis (log2)” value in the series with HeLa Kyoto [1] is -0.141. In addition, the figures for the thermal stability score in the series on HeLa Kyoto [2] (setting [5]) and with HeLa Kyoto [2] (cell cycle stage: mitosis) were -0.801 and -2.06, respectively. Moreover, the values for the melting temperature with HeLa Kyoto [3] (cell cycle stage: G1/S) and in the series on HeLa Kyoto [3] (cell cycle stage: mitosis) were 52.9 °C and 51.1 °C, respectively. For the same sequence, in the series on HeLa Kyoto [4], the “solubility in G1/S (log2)” value was -0.355.
Consider “MPSKKKKYNARFPPARIKKIMQTDEEIGKVAAAVPVIISRALELFLESLLKKACQVTQSRNAKTMTTSHLKQCIELEQQFDFLKDLVASVPDMQGDGEDNHMDGDKGARRGRKPGSGGRKNGGMGTKSKDKKLSGTDSEQEDESEDTDTDGEEETSQPPPQASHPSAHFQSPPTPFLPFASTLPLPPAPPGPSAPDEEDEEDYDS [DRAP1]”, for which the “solubility change mitosis (log2)” value in the series with HeLa Kyoto [1] amounted to 0.215. Moreover, the thermal stability score with HeLa Kyoto [2] (setting [5]) is -2.19; in the series on HeLa Kyoto [2] (cell cycle stage: mitosis) it was -2.89. Moreover, the melting temperature in the series on HeLa Kyoto [3] (cell cycle stage: G1/S) is 56.9 °C; in the series on HeLa Kyoto [3] (cell cycle stage: mitosis), 55.7 °C. Moreover, the “solubility in G1/S (log2)” value in the series with HeLa Kyoto [4] came to 0.748.
Regarding “MPSSLLGAAMPASTSAAALQEALENAGRLIDRQLQEDRMYPDLSELLMVSAPNNPTVSGMSDMDYPLQGPGLLSVPNLPEISSIRRVPLPPELVEQFGHMQCNCMMGVFPPISRAWLTIDSDIFMWNYEDGGDLAYFDGLSETILAVGLVKPKAGIFQPHVRHLLVLATPVDIVILGLSYANLQTGSGVLNDSLSGGMQLLPDPLYSLPTDNTYLLTITSTDNGRIFLAGKDGCLYEVAYQAEAGWFSQRCRKINHSKSSLSFLVPSLLQFTFSEDDPILQIAIDNSRNILYTRSEKGVIQVYDLGQDGQGMSRVASVSQNAIVSAAGNIARTIDRSVFKPIVQIAVIENSESLDCQLLAVTHAGVRLYFSTCPFRQPLARPNTLTLVHVRLPPGFSASSTVEKPSKVHRALYSKGILLMAASENEDNDILWCVNHDTFPFQKPMMETQMTAGVDGHSWALSAIDELKVDKIITPLNKDHIPITDSPVVVQQHMLPPKKFVLLSAQGSLMFHKLRPVDQLRHLLVSNVGGDGEEIERFFKLHQEDQACATCLILACSTAACDREVSAWATRAFFRYGGEAQMRFPTTLPPPSNVGPILGSPVYSSSPVPSGSPYPNPSFLGTPSHGIQPPAMSTPVCALGNPATQATNMSCVTGPEIVYSGKHNGICIYFSRIMGNIWDASLVVERIFKSGNREITAIESSVPCQLLESVLQELKGLQEFLDRNSQFAGGPLGNPNTTAKVQQRLIGFMRPENGNPQQMQQELQRKFHEAQLSEKISLQAIQQLVRKSYQALALWKLLCEHQFTIIVAELQKELQEQLKITTFKDLVIRDKELTGALIASLINCYIRDNAAVDGISLHLQDICPLLYSTDDAICSKANELLQRSRQVQNKTEKERMLRESLKEYQKISNQVDLSNVCAQYRQVRFYEGVVELSLTAAEKKDPQGLGLHFYKHGEPEEDIVGLQAFQERLNSYKCITDTLQELVNQSKAAPQSPSVPKKPGPPVLSSDPNMLSNEEAGHHFEQMLKLSQRSKDELFSIALYNWLIQVDLADKLLQVASPFLEPHLVRMAKVDQNRVRYMDLLWRYYEKNRSFSNAARVLSRLADMHSTEISLQQRLEYIARAILSAKSSTAISSIAADGEFLHELEEKMEVARIQLQIQETLQRQYSHHSSVQDAVSQLDSELMDITKLYGEFADPFKLAECKLAIIHCAGYSDPILVQTLWQDIIEKELSDSVTLSSSDRMHALSLKIVLLGKIYAGTPRFFPLDFIVQFLEQQVCTLNWDVGFVIQTMNEIGVPLPRLLEVYDQLFKSRDPFWNRMKKPLHLLDCIHVLLIRYVENPSQVLNCERRRFTNLCLDAVCGYLVELQSMSSSVAVQAITGNFKSLQAKLERLH [NUP155]”, the “solubility change mitosis (log2)” value with HeLa Kyoto [1] is -0.126. Further, the thermal stability score in the series with HeLa Kyoto [2] (setting [5]) was -2.62; with HeLa Kyoto [2] (cell cycle stage: mitosis), -3.4. Besides, the figures for the melting temperature in the series with HeLa Kyoto [3] (cell cycle stage: G1/S) and in the series on HeLa Kyoto [3] (cell cycle stage: mitosis) were 50.6 °C and 48.8 °C, respectively. In addition, the “solubility in G1/S (log2)” value with HeLa Kyoto [4] was -0.247.
Take “MPTESASCSTARQTKQKRKSHSLSIRRTNSSEQERTGLPRDMLEGQDSKLPSSVRSTLLELFGQIEREFENLYIENLELRREIDTLNERLAAEGQAIDGAELSKGQLKTKASHSTSQLSQKLKTTYKASTSKIVSSFKTTTSRAACQLVKEYIGHRDGIWDVSVAKTQPVVLGTASADHTALLWSIETGKCLVKYAGHVGSVNSIKFHPSEQLALTASGDQTAHIWRYAVQLPTPQPVADTSISGEDEVECSDKDEPDLDGDVSSDCPTIRVPLTSLKSHQGVVIASDWLVGGKQAVTASWDRTANLYDVETSELVHSLTGHDQELTHCCTHPTQRLVVTSSRDTTFRLWDFRDPSIHSVNVFQGHTDTVTSAVFTVGDNVVSGSDDRTVKVWDLKNMRSPIATIRTDSAINRINVCVGQKIIALPHDNRQVRLFDMSGVRLARLPRSSRQGHRRMVCCSAWSEDHPVCNLFTCGFDRQAIGWNINIPALLQEK [WDR37]”: in the series on HeLa Kyoto [1], the “solubility change mitosis (log2)” value is -0.117. Further, the thermal stability score with HeLa Kyoto [2] (setting [5]) is -0.8; in the series on HeLa Kyoto [2] (cell cycle stage: mitosis), -0.627. Moreover, the melting temperature in the series on HeLa Kyoto [3] (cell cycle stage: G1/S) is 53.3 °C. In the series with HeLa Kyoto [4], the “solubility in G1/S (log2)” value was found to be 0.0178.
As for “MPTGFVAPILCVLLPSPTREAATVASATGDSASERESAAPAAAPTAEAPPPSVVTRPEPQALPSPAIRAPLPDLYPFGTMRGGGFGDRDRDRDRGGFGARGGGGLPPKKFGNPGERLRKKKWDLSELPKFEKNFYVEHPEVARLTPYEVDELRRKKEITVRGGDVCPKPVFAFHHANFPQYVMDVLMDQHFTEPTPIQCQGFPLALSGRDMVGIAQTGSGKTLAYLLPAIVHINHQPYLERGDGPICLVLAPTRELAQQVQQVADDYGKCSRLKSTCIYGGAPKGPQIRDLERGVEICIATPGRLIDFLESGKTNLRRCTYLVLDEADRMLDMGFEPQIRKIVDQIRPDRQTLMWSATWPKEVRQLAEDFLRDYTQINVGNLELSANHNILQIVDVCMESEKDHKLIQLMEEIMAEKENKTIIFVETKRRCDDLTRRMRRDGWPAMCIHGDKSQPERDWVLNEFRSGKAPILIATDVASRGLDVEDVKFVINYDYPNSSEDYVHRIGRTARSTNKGTAYTFFTPGNLKQARELIKVLEEANQAINPKLMQLVDHRGGGGGGGGRSRYRTTSSANNPNLMYQDECDRRLRGVKDGGRRDSASYRDRSETDRAGYANGSGYGSPNSAFGAQAGQYTYGQGTYGAAAYGTSSYTAQEYGAGTYGASSTTSTGRSSQSSSQQFSGIGRSGQQPQPLMSQQFAQPPGATNMIGYMGQTAYQYPPPPPPPPPSRK [DDX17]”, the “solubility change mitosis (log2)” value with HeLa Kyoto [1] was found to be 0.16. Moreover, the thermal stability score in the series with HeLa Kyoto [2] (setting [5]) amounted to 3.12; with HeLa Kyoto [2] (cell cycle stage: mitosis) it was 5.66. For the same sequence, the melting temperature turned out to be 49.1 °C in the series on HeLa Kyoto [3] (cell cycle stage: G1/S) and 49.8 °C in the series with HeLa Kyoto [3] (cell cycle stage: mitosis). Moreover, in the series with HeLa Kyoto [4], the “solubility in G1/S (log2)” value is -0.381.
